For orientation: stoichiometry N means the number of molecules, sites or subunits per partner or assembly.

The results in this text go back to publication PMC6392501.

Test [1] deals with C-terminal coiled-coil of hTMEM266 (residues 224–289) (human) (UniProt Q2M3C6). Briefly: non-reducing SDS-PAGE; purified coiled-coil run on SDS-PAGE with or without 2-ME; single species (monomer) with 2-ME, additional band at ~15 kDa without.
Test [2] addresses C-terminal twin-Strep-tagged hTMEM266 (human) (UniProt Q2M3C6). Briefly: cross-linking; air oxidation (disulfide) of membrane fractions of HEK 293T cells expressing Strep-tagged hTMEM266; 10 mM NEM; SDS-PAGE with or without 2-ME; Western blot with anti-Strep antibody. (Immunoblotting shows a protein as a band on a membrane.)
The target is the same in test [3]. Briefly: cross-linking; DSS (varying concentration) applied to intact HEK 293T cells expressing Strep-tagged hTMEM266; membrane fractions on SDS-PAGE; Western blot with anti-Strep antibody.

Turning to “C-terminal coiled-coil of hTMEM266 (residues 224–289) (from UniProt Q2M3C6 224-289) (domain or fragment)”, the stoichiometry N in test [1] was 2. Take “C-terminal twin-Strep-tagged hTMEM266 (from UniProt Q2M3C6 1-523) (natural protein)”: the stoichiometry N in test [2] and in test [3] was 2 throughout.
